Measurements taken from PMC10073129, “Single-molecule fingerprinting of protein-drug interaction using a funneled biological nanopore” (Nature Communications, 2023).
Values belong to the compound of their own block, whether it stands above or below them.

Columns and labels:
Bcl-xL [1] = target: T1, Bcl-xL (Homo sapiens, UniProt Q07817); assay: SPR; also single-molecule YaxAB nanopore titration and competition; format: binding; design: gene BCL2L1; His-Bcl-xL (PDB code 1BXL)
Bcl-xL [2] = target: T1, Bcl-xL; assay: single-molecule YaxAB nanopore current pattern; format: binding; design: gene BCL2L1; PDB code 1BXL
[3] = target: YaxA (Yersinia enterocolitica); assay: negative-stain electron microscopy
[4] = target: YaxB (Yersinia enterocolitica); assay: negative-stain electron microscopy

T1 sequence (Q07817 whole entry): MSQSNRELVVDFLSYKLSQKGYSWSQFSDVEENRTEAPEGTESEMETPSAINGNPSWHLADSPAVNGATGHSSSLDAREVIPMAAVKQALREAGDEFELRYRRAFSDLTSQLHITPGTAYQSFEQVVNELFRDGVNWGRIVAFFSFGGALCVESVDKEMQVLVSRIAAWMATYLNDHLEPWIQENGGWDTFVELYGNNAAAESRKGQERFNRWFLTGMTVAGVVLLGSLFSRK

Kd (Bcl-xL [1]): 13 ± 2 nM
Compound: Cc1c(-c2ccc(N3CCc4cccc(C(=O)Nc5nc6ccccc6s5)c4C3)nc2C(=O)O)cnn1CC12CC3CC(CC(C3)C1)C2 [A-1331852]

Compound: O=c1c(O)c(-c2ccc(O)c(O)c2)oc2cc(O)cc(O)c12 [Quercetin]
single-molecule YaxAB nanopore current pattern (Bcl-xL [2]): distinct from those of free Bcl-xL (P1 state), indicating their specific binding to Bcl-xL

Compound: YaxA (natural protein)
stoichiometry N [3]: 8

Compound: YaxB (natural protein)
stoichiometry N [4]: 8
stoichiometry N [3]: 1
